For data set [1], the target named is T1, PpFAAH1 (Physcomitrium patens, UniProt A0A7I4CIU2).
T1 construct: full length cDNA in pDEST15 (GST tag), E. coli BL21(DE3), GST column, tag removal not mentioned; cloning primers translate to N-terminus MAQNKMR and C-terminus FYNILK; catalytic triad K202, S278, S302
T1 sequence (A0A7I4CIU2 1-601): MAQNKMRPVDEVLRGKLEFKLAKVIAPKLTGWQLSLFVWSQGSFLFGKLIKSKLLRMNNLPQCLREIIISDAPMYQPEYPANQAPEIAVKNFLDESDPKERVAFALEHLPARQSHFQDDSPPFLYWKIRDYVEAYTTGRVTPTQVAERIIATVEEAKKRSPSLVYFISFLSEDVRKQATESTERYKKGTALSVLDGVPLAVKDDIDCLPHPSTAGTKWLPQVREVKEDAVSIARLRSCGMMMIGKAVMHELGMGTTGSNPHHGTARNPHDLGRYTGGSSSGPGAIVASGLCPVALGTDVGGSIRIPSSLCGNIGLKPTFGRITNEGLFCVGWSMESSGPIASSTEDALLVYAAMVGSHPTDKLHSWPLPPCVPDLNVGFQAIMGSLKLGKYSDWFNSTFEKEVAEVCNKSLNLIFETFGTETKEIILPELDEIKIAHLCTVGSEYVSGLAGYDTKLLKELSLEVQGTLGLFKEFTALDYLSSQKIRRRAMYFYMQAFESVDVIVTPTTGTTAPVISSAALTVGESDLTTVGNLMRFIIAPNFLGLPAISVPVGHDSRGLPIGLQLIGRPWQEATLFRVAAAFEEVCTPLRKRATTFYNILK
The data set is described as follows: radiolabeled amidohydrolase assay, TLC with radiometric scanner, […] min preincubation with inhibitor. It counts as biochemical. Conditions: read-out: % inhibition at 10 nM.

Substrate in data set [2]: CCCCC/C=C\C/C=C\C/C=C\C/C=C\CCCC(=O)NCCO
The data set is described as follows: radiolabeled amidohydrolase assay, TLC with radiometric scanner. It counts as biochemical, Physcomitrium patens. The conditions noted are these: pH 8.0, 37 °C, labelled compound ([1-14C]). On the procedure:
radiolabeled amidohydrolase assay, TLC with radiometric scanner on PpFAAH1 | The kinetic parameters, Km and Vmax for PpFAAH1 with anandamide as a substrate were determined

The inhibition is the drop in the measured response relative to a control, in per cent. With `NC(=O)c1cccc(-c2cccc(OC(=O)NC3CCCCC3)c2)c1` [URB597, [3-(3-carbamoylphenyl)phenyl] N-cyclohexyl carbamate], the inhibition at 0.01 µM in data set [1] came out at 20%.

B1: PpFAAH1 (Physcomitrium patens) (protein)
chain: T1 sequence (A0A7I4CIU2 1-601)
notes: full length cDNA in pDEST15 (GST tag), E. coli BL21(DE3), GST column, tag removal not mentioned; cloning primers translate to N-terminus MAQNKMR and C-terminus FYNILK; catalytic triad K202, S278, S302
A word on the Km: it is the substrate concentration at which the rate is half of its maximum. As for B1, in data set [2], the Km stood at 2.3 µM and the kcat was 1.4 S^−1.

Values taken from publication PMC7033180, “An endocannabinoid catabolic enzyme FAAH and its paralogs in an early land plant reveal evolutionary and functional relationship with eukaryotic orthologs” (Scientific Reports, 2020).
